Measurements published in patent US8026218 (UNIVERSITY OF ARIZONA, dated 2011).
Where two headings read alike, the source gives them in different places. Bridge positions count the residues as written; N and C are the ends. Square brackets hold non-standard residues; d marks the D form. Ends that are not written are not given here. * marks the point of attachment. Glc = O-glucosyl on Ser side chain (Ser(OGlu)/Ser(OGlc)); NH(3,5-(CF3)2-benzyl) = FC(F)(F)c1cc(CN*)cc(C(F)(F)F)c1; OBzl(3,5-(CF3)2) = FC(F)(F)c1cc(CO*)cc(C(F)(F)F)c1; Dmt = Cc1cc(O)cc(C)c1C[C@H](N)C(=O)O; Nle = CCCC[C@H](N)C(=O)O

Legend:
guinea pig NK1 receptor [1] = target: T1, guinea pig NK1 receptor (guinea pig, UniProt P30547 1-407); assay: cell-based or functional assay
T1 sequence (P30547 whole entry): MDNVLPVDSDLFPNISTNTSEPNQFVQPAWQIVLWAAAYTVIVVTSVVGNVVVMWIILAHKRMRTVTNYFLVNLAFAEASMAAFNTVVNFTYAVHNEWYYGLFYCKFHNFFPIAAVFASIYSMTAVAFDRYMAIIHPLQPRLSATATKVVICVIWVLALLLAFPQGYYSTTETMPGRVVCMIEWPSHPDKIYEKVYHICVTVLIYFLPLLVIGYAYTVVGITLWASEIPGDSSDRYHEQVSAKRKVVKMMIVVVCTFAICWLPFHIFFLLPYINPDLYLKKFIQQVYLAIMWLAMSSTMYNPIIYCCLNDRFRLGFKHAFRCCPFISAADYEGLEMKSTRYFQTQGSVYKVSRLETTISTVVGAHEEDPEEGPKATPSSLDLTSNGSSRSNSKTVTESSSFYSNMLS

human δ opioid receptor [2] = target: T2, human δ opioid receptor (human, UniProt P41143 1-372); assay: cell-based or functional assay
T2 sequence (P41143 whole entry, stated change not applied): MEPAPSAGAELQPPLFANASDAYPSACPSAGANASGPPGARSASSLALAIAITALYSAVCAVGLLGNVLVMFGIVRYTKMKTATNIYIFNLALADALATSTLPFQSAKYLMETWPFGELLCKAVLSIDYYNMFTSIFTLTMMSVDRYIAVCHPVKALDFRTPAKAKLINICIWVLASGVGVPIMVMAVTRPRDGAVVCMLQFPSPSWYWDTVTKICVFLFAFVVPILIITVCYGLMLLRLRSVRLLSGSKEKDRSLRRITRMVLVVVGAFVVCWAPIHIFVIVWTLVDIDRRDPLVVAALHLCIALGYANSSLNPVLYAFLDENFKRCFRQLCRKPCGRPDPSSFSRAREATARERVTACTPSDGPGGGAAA

rat µ opioid receptor [3] = target: T3, rat µ opioid receptor (rat, UniProt P33535 1-398); assay: cell-based or functional assay
T3 sequence (P33535 whole entry): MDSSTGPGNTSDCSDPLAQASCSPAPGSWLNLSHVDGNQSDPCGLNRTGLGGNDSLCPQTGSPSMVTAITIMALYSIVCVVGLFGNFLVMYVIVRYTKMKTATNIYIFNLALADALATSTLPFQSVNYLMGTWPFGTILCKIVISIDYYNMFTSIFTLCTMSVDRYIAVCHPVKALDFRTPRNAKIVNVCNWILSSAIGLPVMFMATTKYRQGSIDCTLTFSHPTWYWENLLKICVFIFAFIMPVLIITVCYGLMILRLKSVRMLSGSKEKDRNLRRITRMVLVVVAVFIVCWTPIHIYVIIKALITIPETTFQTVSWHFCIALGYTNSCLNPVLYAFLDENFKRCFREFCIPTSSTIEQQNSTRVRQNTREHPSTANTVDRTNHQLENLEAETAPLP

[4] = target: µ opioid receptor of the guinea pig isolated ileum (guinea pig); assay: cell-based or functional assay
guinea pig NK1 receptor [5] = target: T1, guinea pig NK1 receptor; assay: cell-based or functional assay; remark: listed apart in the source
human δ opioid receptor [6] = target: T2, human δ opioid receptor; assay: ratio of Ki at rMOR to Ki at hDOR
rat µ opioid receptor [7] = target: T3, rat µ opioid receptor; assay: competition vs [3H]DAMGO, membranes of rMOR-transfected HN9.10 cells
human δ opioid receptor [8] = target: T2, human δ opioid receptor; assay: competition vs [3H]DPDPE, membranes of hDOR-transfected HN9.10 cells
rat NK1 receptor [9] = target: T4, rat NK1 receptor (rat, UniProt P14600 1-407); assay: competition vs [3H]substance P, membranes of rNK1-transfected CHO cells
T4 construct: whole, on cells; Assayed as membrane preparations of transfected CHO cells; also called rNK1; rNK-1
T4 sequence (P14600 whole entry): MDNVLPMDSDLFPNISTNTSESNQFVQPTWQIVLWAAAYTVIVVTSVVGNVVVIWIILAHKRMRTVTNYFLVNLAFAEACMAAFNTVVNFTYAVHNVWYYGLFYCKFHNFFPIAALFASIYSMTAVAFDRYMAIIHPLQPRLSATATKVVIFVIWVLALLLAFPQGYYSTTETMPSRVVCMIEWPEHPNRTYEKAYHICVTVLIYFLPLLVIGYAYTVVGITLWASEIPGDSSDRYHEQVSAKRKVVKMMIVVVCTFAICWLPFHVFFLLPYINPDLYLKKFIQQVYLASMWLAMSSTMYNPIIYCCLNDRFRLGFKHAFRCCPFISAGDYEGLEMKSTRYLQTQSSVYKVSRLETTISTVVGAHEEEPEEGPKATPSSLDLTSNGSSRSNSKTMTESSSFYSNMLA

rat NK1 receptor [10] = target: T4, rat NK1 receptor; assay: radioligand competition vs [3H]substance P; reference value of L-732,138 (around 460 nM) is a reported one
human δ opioid receptor [11] = target: T5, human δ opioid receptor (human, UniProt P41143 1-372); assay: cell-based or functional assay; remark: listed apart in the source
T5 sequence (P41143 whole entry, stated change not applied): as the sequence (P41143 whole entry, stated change not applied) above

rat µ opioid receptor [12] = target: T6, rat µ opioid receptor (rat, UniProt P33535 1-398); assay: cell-based or functional assay; remark: listed apart in the source
T6 sequence (P33535 whole entry): as the sequence (P33535 whole entry) above

[13] = target: µ opioid receptor of the guinea pig isolated ileum (guinea pig, UniProt P97266 1-98); assay: cell-based or functional assay
Sequence of µ opioid receptor of the guinea pig isolated ileum (P97266 whole entry): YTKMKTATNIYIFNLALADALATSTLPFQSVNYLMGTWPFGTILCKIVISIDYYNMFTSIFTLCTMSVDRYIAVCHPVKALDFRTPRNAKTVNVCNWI

guinea pig NK1 receptor [14] = target: T7, guinea pig NK1 receptor (guinea pig, UniProt P30547 1-407); assay: cell-based or functional assay; remark: listed apart in the source
T7 sequence (P30547 whole entry): as the sequence (P30547 whole entry) above

rat µ opioid receptor [15] = target: T6, rat µ opioid receptor; assay: competition vs [3H]DAMGO, rMOR cell membranes
human δ opioid receptor [16] = target: T5, human δ opioid receptor; assay: competition vs [3H]DPDPE, hDOR cell membranes
human NK1 receptor [17] = target: T8, human NK1 receptor (human, UniProt P25103 1-407); assay: competition vs [3H]Substance P, hNK1 CHO cell membranes
T8 construct: whole, on cells; membrane preparations of the transfected cells were used; also called hNK1; human neurokinin-1 receptor
T8 sequence (P25103 whole entry): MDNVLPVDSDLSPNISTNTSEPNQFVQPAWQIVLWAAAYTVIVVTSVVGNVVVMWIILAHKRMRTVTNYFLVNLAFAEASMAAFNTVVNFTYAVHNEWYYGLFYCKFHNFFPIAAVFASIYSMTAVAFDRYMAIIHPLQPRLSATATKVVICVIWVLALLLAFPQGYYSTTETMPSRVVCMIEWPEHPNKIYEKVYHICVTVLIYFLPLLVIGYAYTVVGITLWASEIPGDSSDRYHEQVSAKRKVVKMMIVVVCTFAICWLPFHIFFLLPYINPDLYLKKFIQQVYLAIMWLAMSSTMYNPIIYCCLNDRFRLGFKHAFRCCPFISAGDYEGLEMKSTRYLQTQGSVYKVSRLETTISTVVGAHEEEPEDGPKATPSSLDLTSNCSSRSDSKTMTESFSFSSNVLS

rat NK1 receptor [18] = target: T9, rat NK1 receptor (rat, UniProt P14600 1-407); assay: competition vs [3H]Substance P, rNK1 CHO cell membranes
T9 construct: whole, on cells; membrane preparations of the transfected cells were used; also called rNK1; rNK-1
T9 sequence (P14600 whole entry): as the sequence (P14600 whole entry) above

human δ opioid receptor [19] = target: T5, human δ opioid receptor; assay: cell-based or functional assay; remark: listed apart in the source
rat µ opioid receptor [20] = target: T6, rat µ opioid receptor; assay: cell-based or functional assay; remark: listed apart in the source
guinea pig NK1 receptor [21] = target: T7, guinea pig NK1 receptor; assay: cell-based or functional assay; remark: listed apart in the source
rat µ opioid receptor [22] = target: T6, rat µ opioid receptor; assay: ratio of the Ki at rMOR to the Ki at hDOR
rat µ opioid receptor [23] = target: T6, rat µ opioid receptor; assay: competition vs [3H]DAMGO, rMOR cell membranes; remark: listed apart in the source
human δ opioid receptor [24] = target: T5, human δ opioid receptor; assay: competition vs [3H]DPDPE, hDOR cell membranes; remark: listed apart in the source
human NK1 receptor [25] = target: T8, human NK1 receptor; assay: competition vs [3H]Substance P, hNK1 CHO cell membranes; remark: listed apart in the source
rat NK1 receptor [26] = target: T9, rat NK1 receptor; assay: competition vs [3H]Substance P, rNK1 CHO cell membranes; remark: listed apart in the source
human δ opioid receptor [27] = target: T5, human δ opioid receptor; assay: cell-based or functional assay; remark: listed apart in the source
rat µ opioid receptor [28] = target: T6, rat µ opioid receptor; assay: cell-based or functional assay; remark: listed apart in the source
rat µ opioid receptor [29] = target: T6, rat µ opioid receptor; assay: competition vs [3H]DAMGO, rMOR cell membranes; remark: listed apart in the source
human δ opioid receptor [30] = target: T5, human δ opioid receptor; assay: competition vs [3H]DPDPE, hDOR cell membranes; remark: listed apart in the source
human NK1 receptor [31] = target: T8, human NK1 receptor; assay: competition vs [3H]Substance P, hNK1 CHO cell membranes; remark: listed apart in the source
rat µ opioid receptor [32] = target: T6, rat µ opioid receptor; assay: cell-based or functional assay; remark: listed apart in the source
rat µ opioid receptor [33] = target: T6, rat µ opioid receptor; assay: competition vs [3H]DAMGO, rMOR cell membranes; remark: listed apart in the source
human NK1 receptor [34] = target: T8, human NK1 receptor; assay: competition vs [3H]Substance P, hNK1 CHO cell membranes; remark: listed apart in the source

B1: H-Tyr-D-Ala-Gly-Phe-Phe-Pro-Leu-Trp-O-3,5-Bzl(CF3)2 (peptide)
peptide: H-Y[dA]GFFPLW-{OBzl(3,5-(CF3)2)}
modifications: also: TFA salt
notes: TFA salt; also called TY003
Guinea pig NK1 receptor [1]
  fold improvement of Ke in GPI tissue over L-732,138: 12 fold
Human δ opioid receptor [2]
  [35S]GTP-γ-S binding EC50: 20.8 nM
  [35S]GTP-γ-S binding Emax: 39%
  [35S]GTP-γ-S binding LogEC50: -7.68
Rat µ opioid receptor [3]
  [35S]GTP-γ-S binding EC50: 58.7 nM
  [35S]GTP-γ-S binding Emax: 41%
  [35S]GTP-γ-S binding LogEC50: -7.23
[4]
  GPI (µ) opioid agonist, % at 1 µM: 7 % at 1 µM
Guinea pig NK1 receptor [5]
  Substance P GPI agonist (A50), contraction relative to KCl: 0 % at 1 µM
  Substance P GPI antagonist Ke: 14.4 nM
Human δ opioid receptor [6]
  Ki(µ)/Ki(δ): 1.9
Rat µ opioid receptor [7]
  Ki: 28.3 nM
  LogIC50: -7.22
Human δ opioid receptor [8]
  Ki: 14.6 nM
  LogIC50: -7.5
Rat NK1 receptor [9]
  IC50: 19.3 nM
  LogIC50: -7.72
Rat NK1 receptor [10]
  fold improvement of rNK1 affinity over L-732,138: 25 fold

B2: TyrDAlaGlyPheSer(OGlu)ProLeuTrpNHBn(CF3)2 (peptide)
peptide: Y[dA]GFS(Glc)PLW-{NH(3,5-(CF3)2-benzyl)}
notes: also called TY042
Human δ opioid receptor [11]
  GTP binding EC50: 51.9 nM
  GTP binding Emax: 47%
Rat µ opioid receptor [12]
  GTP binding EC50: 176 nM
  GTP binding Emax: 28%
[13]
  GPI/LMMP IC50: 1890 nM
Guinea pig NK1 receptor [14]
  GPI/LMMP SP antagonist Ke: 2.83 nM
Rat µ opioid receptor [15]
  Ki: 256 nM
Human δ opioid receptor [16]
  Ki: 58.5 nM
Human NK1 receptor [17]
  Ki: 0.27 pM
Rat NK1 receptor [18]
  Ki: 1.5 nM

B3: Tyr[DCysGlyPheNleProDCys]TrpNHBn(CF3)2 (peptide)
peptide: Y[dC]GF[Nle]P[dC]W-{NH(3,5-(CF3)2-benzyl)}
modifications: disulfide 2-7
notes: cyclic; also called TY038; [D-Cys2, D-Cys7]TY027
Human δ opioid receptor [19]
  [35S]GTPγS binding EC50: 51 nM
  [35S]GTPγS binding Emax: 87%
  [35S]GTPγS binding LogEC50: -7.3
Rat µ opioid receptor [20]
  [35S]GTPγS binding EC50: 22 nM
  [35S]GTPγS binding Emax: 12%
  [35S]GTPγS binding LogEC50: -7.7
Guinea pig NK1 receptor [21]
  GPI Substance P antagonist Ke: 12 nM
Rat µ opioid receptor [22]
  Ki(µ)/Ki(δ): 2.9
Rat µ opioid receptor [23]
  Ki: 160 nM
  LogIC50: -8.8
Human δ opioid receptor [24]
  Ki: 56 nM
  LogIC50: -6.9
Human NK1 receptor [25]
  Ki: 0.25 nM
  LogIC50: -9.3
Rat NK1 receptor [26]
  Ki: 7.1 nM
  LogIC50: -7.7

B4: Tyr[DPenGlyPhePen]ProLeuTrpNHBn(CF3)2 (peptide)
peptide: YXGFXPLW
modifications: D-Pen at 2 and Pen at 5 (written X); disulfide 2-5; C-terminal NH-3,5-Bzl(CF3)2 amide
notes: cyclic; also called TY046
Human δ opioid receptor [27]
  GTP binding EC50: 17.3 nM
Rat µ opioid receptor [28]
  GTP binding EC50: 28.8 nM
Rat µ opioid receptor [29]
  Ki: 2330 nM
Human δ opioid receptor [30]
  Ki: 1.7 nM
Human NK1 receptor [31]
  Ki: 5.3 pM

B5: TyrDAlaGlyPheNleProLeuTrpNHBn(CF3)2 (peptide)
peptide: YAGFXPLW
modifications: D-Ala at 2; Nle at 5 (written X); C-terminal NH-3,5-Bzl(CF3)2 amide
notes: also called TY045
Human δ opioid receptor [11]
  GTP binding EC50: 5 nM
  GTP binding Emax: 125%
[13]
  GPI/LMMP IC50: 463 nM
Guinea pig NK1 receptor [14]
  GPI/LMMP SP antagonist Ke: 40.8 nM
Human δ opioid receptor [16]
  Ki: 1 nM
Human NK1 receptor [17]
  Ki: 2.8 pM

B6: DmtDAlaGlyPheNleProSer(OGlu)TrpNHBn(CF3)2 (peptide)
peptide: [Dmt][dA]GF[Nle]PS(Glc)W-{NH(3,5-(CF3)2-benzyl)}
notes: also called TY056
Rat µ opioid receptor [32]
  GTP binding EC50: 44.9 nM
  GTP binding Emax: 66%
Rat µ opioid receptor [33]
  Ki: 1.9 nM
Human NK1 receptor [34]
  Ki: 1.7 pM
